Laboratory results from PMC5464773, “Epistatic mutations in PUMA BH3 drive an alternate binding mode to potently and selectively inhibit anti-apoptotic Bfl-1” (eLife, 2017).

Target: Myc-tagged Bfl-1 (human, UniProt Q16548 1-175)
Assay: fluorescence polarisation; competition: 0–10 μM unlabeled peptide titrated into 50 nM c-myc-tagged receptor plus 25 nM fluoresceinated BIM; 25 mM Tris pH 7.8, 50 mM NaCl, 1 mM EDTA, 5% DMSO, 0.001% v/v Triton-X; 23°C, 3 hr; fit to a complete competitive binding model
Details: both partners purified

Myc-tagged Bfl-1, sequence (Q16548 whole entry): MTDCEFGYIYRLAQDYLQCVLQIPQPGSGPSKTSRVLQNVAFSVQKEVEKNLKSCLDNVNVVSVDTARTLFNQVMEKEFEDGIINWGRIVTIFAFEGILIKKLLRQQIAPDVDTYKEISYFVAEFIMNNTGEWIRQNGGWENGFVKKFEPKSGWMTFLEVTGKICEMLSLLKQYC

B1: BIM-FS2 (peptide)
chain: RPVIWIAQGLRRAGDEVNAYVAR
modifications: probably N-terminal acetyl and C-terminal amide; 23-mer 1f-4g assumed by analogy with PUMA/FS2; printed E2bV read as E2aV (2b is Ile in BIM, 2a is Glu and FS2 has Val at 2a); A2eA is no change / Myc …
- Ki: 720 nM
